This note sets out measurements from patent publication EP4484444A1.

Where only a bound is given, the exact number is not on record here.

The target of the test is CPIII-Long (model substrate derived from procollagen III). Kind of test: cell-based or functional assay.

With “human PCPE-1 fused to a C-terminal 8His tag (from UniProt Q15113 26-449)”, the enhancement factor of CPIII-Long cleavage by BMP-1 with 4 equivalents is over 3 and the enhancement factor of CPIII-Long processing by BMP-1 was 1.7.
